We go through one substance from article doi:10.1101/2025.03.26.645558.

Test [1] addresses E. fergusonii BrxB WT (Escherichia fergusonii). The test can be described thus: native MS; collected BrxB SEC peaks exchanged into 10 mM ammonium bicarbonate, 0.5 mg/ml, ES+-ToF MS (Xevo QToF).
The target is the same in test [2]. The test can be described thus: SEC; analytical SEC of BrxB alone on Superdex 75 increase 10/300 GL, 10 μM, 20 mM Tris HCl pH 7.9, 150 mM NaCl; monomer and dimer.

E. fergusonii BrxB WT (natural protein): the stoichiometry N in test [1] and in test [2] was 2 throughout.
